From the RNAGym collection of RNA variant scans (doi:10.1073/pnas.2313332121)

B1: TPR t1 (parent)
chain: GACCAAUCUGCCCUCAGAGCUCGAGAACAUCUUCGGAUGCAGAGGAGGCAGGCUUCGGUGGCGCGAUAGCGCCAACGUCCUCAACCUCCAAUGCAUCCCACCACAUGAUGAUGCCUGAAGAGCCUUGGUUUUUUG

Variants of: B1
Test: polymerase ribozyme fitness, log enrichment relative to wild type (log ratio); higher = more active; in vitro selection for triplet polymerase activity
Summary of the method: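 Frozen incubation at −7 °C formed the core of a single, triplicate in vitro selection round applied to PCR-built, transcribed mutant libraries of each subunit of a heterodimeric triplet polymerase ribozyme. Extended constructs were gel-excised, captured with streptavidin beads and amplified by RT-PCR, and input and output libraries were Illumina-sequenced with a filter of ≥10 input reads and ≥1 read per output. Fitness is the logarithm of genotype enrichment relative to wild-type enrichment, with inverse-variance-weighted replicate averaging, and the logarithm is base 2.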

Variant | polymerase ribozyme fitness (log ratio)
C12U G110U | -0.322
G35U G69U | -0.908
G10A C56A | 0.127
A43C G48U C62A A66U C123A | -6.8
A16U G57U | -1.91
C11G G42C C53A | -1.03
C49A A118G | -0.216
U106C C123G U133G | -1.72
C49U A90G C124A | 1.48
C12G C34A | -2.33
U7G G10C G45A G47A U59G G77A | -1.37
U78G C86U | -0.465
G57C G71U G113C | -3.12
G45A C82A | -1.1
C8G G113U | -1.24
C20A G117A | -3.21
A27U A121C | -0.527
U38C G63C C102U | -3.7
C82G C115A C123A | -1.32
A50G C89A | -1.48
C49G G61C | -2.12
C99U C123A | -3.32
C31U C73A A95C | -5.67
C34A A121U | -0.134

Variant | polymerase ribozyme fitness (log ratio)
A91C A111C | -2.03
A2C G61A | -1.72
G10U G69U | 0.293
G19C U87A | -2.58
U59G G60A C85A | -2.54
A74U C89U | -0.535
A37C C115U U130A U132G | -1.99
C15G U132C | -2.23
C8G C73G | 0.0346
G107U A121U G128C | -4.77
C40U A41U G60A | -2.3
G57A C72A C85U C99G U106G | -7.04
A41G U55A U130G | -0.934
C3G G39A G51U G69U C79A U130G | -3
G52C G93A G113A A119G | -1.29
C11U U59A A91G A118U | -1.98
A43C G69U G110A | -1.54
A68G C79G A105G G110U | -8.49
A108G G122U | -1.78
G39U C85G | -2.87
A43C C56A A66U U112A | -4.32
C56U C94U | 0.204
C11G C12G A46G G71U | -0.917
C13G U54G | -1.83

Variant | polymerase ribozyme fitness (log ratio)
C28G C72A C102G G107A | -7.59
C40U C53U G61C U131A | -0.765
C13G A90C A95G | -3.14
G19A G36U | -3.84
U14C U112G G113U | -5.07
C15A A41U A43U G61A G113A G122A | -5.83
C12G U14C U59G C73G | -2.57
A27U C114A | -3.53
C64A U96G C123U | -6.2
U78C A84C U96G U116G | -3.6
C94A A105U | -3.27
G36C C72A C94A C104U | -3.64
C3A A5G C12A G63U A68G C115G G122A U130G | -6.94
C13G G17C A75U U87G U96A C104U | -5.5
U14G A74U | -2.04
C56U A91U | -1.19
G93C G117A | -1.09
U9C A29U U129A | -2.08
A18C | -2.11
C15A C104U G110A | -2.85
A27U G77U U78G A111C | -6.32
A2G U9G U21C G128A | -4.35
A6G C98U | -1.69
C64U C85A | -3.12

Variant | polymerase ribozyme fitness (log ratio)
C12U C15A U125G U133A | -1.18
C80U U109C | -3.85
C12U A46C C53G C72U C73G A84C A95C | -5.01
A6G G45C C94U G120A U126G | -5.4
G71A U92A C94U C115G | -4.8
C22G U78C | -3.01
C86G G110A G113U C124A | -6.69
A5G C8U A95C | -0.636
C53U G71U U81A C123U G135A | -0.21
G44U C70U A111C C124U | -2.44
A37C G52C G117A | -2.76
C11A G17U | -3.57
A24G G71C | -2.48
A2U A18G U32C G93U C124G U133G | -2.99
A24U C34A U59A G63U C80A G113A | -7.46
C70A A111G | -1.42
A29G G39U C72G | -3.09
C8A C12A C79U C80U C114U | -4.99
G113A U130A | -2.33
U78C G120A | 0.768
U106A U133G | -0.54
G39A A84C U106A | -0.784
U96G G120A | -0.241
G42A G57U G122U C123U | -2.35

Variant | polymerase ribozyme fitness (log ratio)
A118G C124G | -0.0684
C12U U87A | 0.248
C70U A95U A111U G120U | -6.23
A5C U7A C8A C80U | -1.09
C12U A50U C56G | -1.24
U9G G35U C40A G93C C114U | -5.91
C56U G57U C70A | -2.65
C15A C53A C72G A103C G113A G117A | -6.79
G17U U130C | -1.79
C15A G117A | -2.72
A27G C53U C72A C102U | -3.85
A2U C12A | -3.25
C8U C20U U38G C62G G113U | -3.27
C8A G36U C49G G71U | -1.2
U55A U81A G107U A111U | -4.76
A103G U130A | -5.53
C8A C64U | 0.575
G47A C70G | -4.77
A16U G107U C124G | -4.06
C70G C86A | -4.89
G63U U87A C114A | -3.29
C64U C124U | 0.756
A41C G113A C124G | -1.49
C62U G93U U112G U129A | -3.65

Variant | polymerase ribozyme fitness (log ratio)
A5U G61U C124A | 1.19
U54G C56G A83C | -2.03
A6U C124U | 1.56
C64U U92A | -3.06
C13A G39C C76G U106C | -2.79
G45U A84G U96G C101G | -4.84
G47A G69U G77C C99U C114G | -3.2
A41C G71U | -0.988
G47A C56A G113U C114A A121G | -2.45
C40A A43C | -3.2
A18U C73U U96A | -3.25
A5C A37U G127U | -2.11
G61C G65A C82U | -7.8
U7G C22U G42A G47C G60C U87G U92C | -7.02
A118U G127C | -1.35
G17A G71A | -4.07
G60A C98A | -4.29
C11U A43U C53G | -2.46
G44A G69C C102A G122A | -5.57
C4U C49U U78A | -1.36
A2U G63A C86A | -4.44
G19C C86G A121G | -0.947
C13G C15U G120A | -2.44
G61A G120U | 0.215

Variant | polymerase ribozyme fitness (log ratio)
C40U A50U G51A C82A C85U | -4.25
C94U U125G | -1.32
C22U C70U G117C | -6.77
A26C A29G U112G | -7.05
C15A C40U C115U U131A | -1.85
G60A C101A U106A A119U C123U | -4.23
C72G C97U G122A | -1.57
U38G C82G A95G | -2.72
G45A G61A G110U U125C | -0.661
C11G G63A C82G G117U C123G | -2.82
G48C C49G | -0.655
G36A G127U U133G | -3.26
C22A A43G A46U C72U G113C U116G | -6.81
C13A C70G U112A C123U | -4
G35U C79A | -6.66
C12G C94G A105C | -4.19
U129A U132A | -1.56
G35A G36U U112A | -5.59
C56A A83C | -0.237
C12U G58A C62A | -1.76
C12U C80U C89U C99U G120A | -2.97
C72A C85U A90C | -1.5
C12G G120A | 1.87
